The results in this text go back to patent publication US20210040155A1 (RHYTHM PHARMACEUTICALS, published 2021).

Bridge positions count the residues as written; N and C are the ends. Square brackets hold non-standard residues; d marks the D form. dPhe(4-F) = N[C@H](Cc1ccc(F)cc1)C(=O)O; Pen = CC(C)(S)[C@H](N)C(=O)O; hCys = N[C@@H](CCS)C(=O)O Where only a bound is given, the exact number is not on record here.

The chains are these.
B1: Ac-Arg-cyclo[Cys-D-Ala-Trp-D-Phe-Arg-Trp-Cys]-NH2 (peptide)
peptide: Ac-RC[dA]W[dF]RWC-NH2
modifications: disulfide 2-8
SMILES: CC(=O)N[C@@H](CCCNC(=N)N)C(=O)N[C@H]1CSSC[C@@H](C(N)=O)NC(=O)[C@H](Cc2c[nH]c3ccccc23)NC(=O)[C@H](CCCNC(=N)N)NC(=O)[C@@H](Cc2ccccc2)NC(=O)[C@H](Cc2c[nH]c3ccccc23)NC(=O)[C@@H](C)NC1=O
B2: Ac-Arg-cyclo[Cys-D-Leu-His-D-Phe-Arg-Trp-Cys]-NH2 (peptide)
peptide: Ac-RC[dL]H[dF]RWC-NH2
modifications: disulfide 2-8
B3: Ac-Arg-cyclo[hCys-D-Ala-D-Phe-Arg-Trp-Pen]-NH2 (peptide)
peptide: Ac-R[hCys][dA][dF]RW[Pen]-NH2
modifications: disulfide 2-7
SMILES: CC(=O)N[C@@H](CCCNC(=N)N)C(=O)N[C@H]1CCSSC(C)(C)[C@@H](C(N)=O)NC(=O)[C@H](Cc2c[nH]c3ccccc23)NC(=O)[C@H](CCCNC(=N)N)NC(=O)[C@@H](Cc2ccccc2)NC(=O)[C@@H](C)NC1=O
B4: Ac-Glu-cyclo[Cys-Ala-His-D-Phe-Arg-Trp-Cys]-NH2 (peptide)
peptide: Ac-ECAH[dF]RWC-NH2
modifications: disulfide 2-8
SMILES: CC(=O)N[C@@H](CCC(=O)O)C(=O)N[C@H]1CSSC[C@@H](C(N)=O)NC(=O)[C@H](Cc2c[nH]c3ccccc23)NC(=O)[C@H](CCCNC(=N)N)NC(=O)[C@@H](Cc2ccccc2)NC(=O)[C@H](Cc2c[nH]cn2)NC(=O)[C@H](C)NC1=O
B5: Ac-Arg-cyclo[Cys-D-Ala-Tyr-D-Phe-Arg-Trp-Cys]-NH2 (peptide)
peptide: Ac-RC[dA]Y[dF]RWC-NH2
modifications: disulfide 2-8
SMILES: CC(=O)N[C@@H](CCCNC(=N)N)C(=O)N[C@H]1CSSC[C@@H](C(N)=O)NC(=O)[C@H](Cc2c[nH]c3ccccc23)NC(=O)[C@H](CCCNC(=N)N)NC(=O)[C@@H](Cc2ccccc2)NC(=O)[C@H](Cc2ccc(O)cc2)NC(=O)[C@@H](C)NC1=O
B6: Ac-Arg-cyclo[Cys-D-Ala-Pro-D-Phe-Arg-Trp-Cys]-NH2 (peptide)
peptide: Ac-RC[dA]P[dF]RWC-NH2
modifications: disulfide 2-8
SMILES: CC(=O)N[C@@H](CCCNC(=N)N)C(=O)N[C@H]1CSSC[C@@H](C(N)=O)NC(=O)[C@H](Cc2c[nH]c3ccccc23)NC(=O)[C@H](CCCNC(=N)N)NC(=O)[C@@H](Cc2ccccc2)NC(=O)[C@@H]2CCCN2C(=O)[C@@H](C)NC1=O
B7: Ac-Arg-cyclo[Cys-D-Ile-His-D-Phe-Arg-Trp-Cys]-NH2 (peptide)
peptide: Ac-RC[dI]H[dF]RWC-NH2
modifications: disulfide 2-8
B8: Ac-Arg-cyclo[Cys-D-Val-His-D-Phe-Arg-Trp-Cys]-NH2 (peptide)
peptide: Ac-RC[dV]H[dF]RWC-NH2
modifications: disulfide 2-8
B9: Ac-Arg-cyclo[Cys-D-Ala-Pro-D-Phe(p-F)-Arg-Trp-Cys]-NH2 (peptide)
peptide: Ac-RC[dA]P[dPhe(4-F)]RWC-NH2
modifications: disulfide 2-8
SMILES: CC(=O)N[C@@H](CCCNC(=N)N)C(=O)N[C@H]1CSSC[C@@H](C(N)=O)NC(=O)[C@H](Cc2c[nH]c3ccccc23)NC(=O)[C@H](CCCNC(=N)N)NC(=O)[C@@H](Cc2ccc(F)cc2)NC(=O)[C@@H]2CCCN2C(=O)[C@@H](C)NC1=O
B10: Ac-Arg-cyclo[Cys-D-Ala-Asn-D-Phe-Arg-Trp-Cys]-NH2 (peptide)
peptide: Ac-RC[dA]N[dF]RWC-NH2
modifications: disulfide 2-8
SMILES: CC(=O)N[C@@H](CCCNC(=N)N)C(=O)N[C@H]1CSSC[C@@H](C(N)=O)NC(=O)[C@H](Cc2c[nH]c3ccccc23)NC(=O)[C@H](CCCNC(=N)N)NC(=O)[C@@H](Cc2ccccc2)NC(=O)[C@H](CC(N)=O)NC(=O)[C@@H](C)NC1=O
B11: Ac-Arg-cyclo[Cys-D-Ala-Gln-D-Phe-Arg-Trp-Cys]-NH2 (peptide)
peptide: Ac-RC[dA]Q[dF]RWC-NH2
modifications: disulfide 2-8
SMILES: CC(=O)N[C@@H](CCCNC(=N)N)C(=O)N[C@H]1CSSC[C@@H](C(N)=O)NC(=O)[C@H](Cc2c[nH]c3ccccc23)NC(=O)[C@H](CCCNC(=N)N)NC(=O)[C@@H](Cc2ccccc2)NC(=O)[C@H](CCC(N)=O)NC(=O)[C@@H](C)NC1=O
B12: Ac-Arg-cyclo[Cys-D-Ala-Arg-D-Phe-Arg-Trp-Cys]-NH2 (peptide)
peptide: Ac-RC[dA]R[dF]RWC-NH2
modifications: disulfide 2-8
SMILES: CC(=O)N[C@@H](CCCNC(=N)N)C(=O)N[C@H]1CSSC[C@@H](C(N)=O)NC(=O)[C@H](Cc2c[nH]c3ccccc23)NC(=O)[C@H](CCCNC(=N)N)NC(=O)[C@@H](Cc2ccccc2)NC(=O)[C@H](CCCNC(=N)N)NC(=O)[C@@H](C)NC1=O
B13: Ac-Arg-cyclo[hCys-D-Ala-D-Phe-Arg-Trp-Cys]-NH2 (peptide)
peptide: Ac-R[hCys][dA][dF]RWC-NH2
modifications: disulfide 2-7
SMILES: CC(=O)N[C@@H](CCCNC(=N)N)C(=O)N[C@H]1CCSSC[C@@H](C(N)=O)NC(=O)[C@H](Cc2c[nH]c3ccccc23)NC(=O)[C@H](CCCNC(=N)N)NC(=O)[C@@H](Cc2ccccc2)NC(=O)[C@@H](C)NC1=O
B14: Ac-Arg-cyclo[hCys-Ala-D-Phe-Arg-Trp-Cys]-NH2 (peptide)
peptide: Ac-R[hCys]A[dF]RWC-NH2
modifications: disulfide 2-7
SMILES: CC(=O)N[C@@H](CCCNC(=N)N)C(=O)N[C@H]1CCSSC[C@@H](C(N)=O)NC(=O)[C@H](Cc2c[nH]c3ccccc23)NC(=O)[C@H](CCCNC(=N)N)NC(=O)[C@@H](Cc2ccccc2)NC(=O)[C@H](C)NC1=O

melanocortin-3 receptor, sequence (P41968 whole entry): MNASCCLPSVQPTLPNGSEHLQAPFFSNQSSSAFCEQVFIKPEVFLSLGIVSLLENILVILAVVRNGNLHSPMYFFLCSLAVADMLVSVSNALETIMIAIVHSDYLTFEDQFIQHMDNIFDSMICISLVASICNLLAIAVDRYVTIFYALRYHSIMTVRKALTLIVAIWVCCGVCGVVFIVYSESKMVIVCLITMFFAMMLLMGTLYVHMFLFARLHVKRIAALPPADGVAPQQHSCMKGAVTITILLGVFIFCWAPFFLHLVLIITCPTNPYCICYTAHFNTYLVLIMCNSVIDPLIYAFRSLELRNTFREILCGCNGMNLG

The target in the first assay is melanocortin-1 receptor (human, UniProt Q01726 1-317). In words: cell-based or functional assay.
melanocortin-1 receptor, sequence (Q01726 whole entry): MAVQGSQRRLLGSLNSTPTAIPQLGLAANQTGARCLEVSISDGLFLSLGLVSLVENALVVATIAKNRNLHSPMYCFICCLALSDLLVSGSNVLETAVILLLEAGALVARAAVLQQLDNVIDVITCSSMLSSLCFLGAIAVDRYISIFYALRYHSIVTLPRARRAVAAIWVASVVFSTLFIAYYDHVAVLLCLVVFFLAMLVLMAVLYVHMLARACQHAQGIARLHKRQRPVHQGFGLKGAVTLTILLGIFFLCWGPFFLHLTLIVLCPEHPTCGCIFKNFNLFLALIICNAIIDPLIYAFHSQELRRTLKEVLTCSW
As to B1, the “Ratios of EC50 values MC 1/4 (MC1R against MC4R)” value (“Ratios … (MC1R against MC4R)” below) was 8 ratio and the “cAMP Assay (EC-50)” value was 273 nM.
The matching figures for B2: 0.68 ratio and 0.47 nM.
For B3, the “Ratios … (MC1R against MC4R)” value came to 15 ratio and the “cAMP Assay (EC-50)” value is 195 nM.
Turning to B4, the “Ratios … (MC1R against MC4R)” value was more than 3 ratio and the “cAMP Assay (EC-50)” value came out at 1.7 nM.
The matching figures for B5: 6.67 ratio and 301 nM.
B6: the “Ratios … (MC1R against MC4R)” value is 5 ratio and the “cAMP Assay (EC-50)” value was found to be 280 nM.
As for B7, the “Ratios … (MC1R against MC4R)” value came to 0.69 ratio and the “cAMP Assay (EC-50)” value is 0.69 nM.
On the same counts, the results for B8 are 0.93 ratio and 1.25 nM.
On the same counts, the results for B9 are 7 ratio and 169 nM.
In the case of B10, the “Ratios … (MC1R against MC4R)” value worked out at 90 ratio and the “cAMP Assay (EC-50)” value amounted to 248 nM.
Turning to B11, the “Ratios … (MC1R against MC4R)” value amounted to 40 ratio and the “cAMP Assay (EC-50)” value came out at 71 nM.
As to B12, the “Ratios … (MC1R against MC4R)” value came out at 2.31 ratio and the “cAMP Assay (EC-50)” value came out at 6.2 nM.
The matching figures for B13: 120 ratio and 888 nM.
For B14, the “Ratios … (MC1R against MC4R)” value amounted to 15 ratio and the “cAMP Assay (EC-50)” value was determined as 4 nM.

The target of a further assay is melanocortin-5 receptor (human, UniProt P33032 1-325). In words: cell-based or functional assay.
melanocortin-5 receptor, sequence (P33032 whole entry): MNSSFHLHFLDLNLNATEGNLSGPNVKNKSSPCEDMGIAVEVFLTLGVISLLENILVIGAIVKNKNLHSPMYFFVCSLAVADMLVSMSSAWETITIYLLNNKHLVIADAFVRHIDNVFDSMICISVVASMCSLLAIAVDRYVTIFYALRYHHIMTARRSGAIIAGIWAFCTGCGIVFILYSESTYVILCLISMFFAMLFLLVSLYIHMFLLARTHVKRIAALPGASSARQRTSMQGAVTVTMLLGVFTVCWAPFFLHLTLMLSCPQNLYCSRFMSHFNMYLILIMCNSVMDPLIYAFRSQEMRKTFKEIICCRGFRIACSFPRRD
B1: the “Ratios of EC50 values MC 5/4 (MC5R against MC4R)” value (from here on “Ratios … (MC5R against MC4R)”) stood at 7 ratio and the “cAMP Assay (EC-50)” value is 259 nM.
The matching figures for B2: 130 ratio and 91 nM.
The matching figures for B3: 159 ratio and 2180 nM.
The matching figures for B4: more than 2560 ratio and 1280 nM.
As to B6, the “Ratios … (MC5R against MC4R)” value came out at 13 ratio and the “cAMP Assay (EC-50)” value was determined as 707 nM.
The matching figures for B7: 420 ratio and 420 nM.
As for B8, the “Ratios … (MC5R against MC4R)” value came to 584 ratio and the “cAMP Assay (EC-50)” value is 782 nM.
On the same counts, the results for B9 are 12 ratio and 283 nM.
The matching figures for B10: 530 ratio and 1490 nM.
Turning to B11, the “Ratios … (MC5R against MC4R)” value turned out to be 155 ratio and the “cAMP Assay (EC-50)” value was 255 nM.
With B13, the “Ratios … (MC5R against MC4R)” value is more than 1340 ratio and the “cAMP Assay (EC-50)” value was more than 10000 nM.
The matching figures for B14: 161 ratio and 42 nM.

For a further assay, the target named is melanocortin-4 receptor (human, UniProt P32245 1-332). Description: cell-based or functional assay.
melanocortin-4 receptor, sequence (P32245 whole entry): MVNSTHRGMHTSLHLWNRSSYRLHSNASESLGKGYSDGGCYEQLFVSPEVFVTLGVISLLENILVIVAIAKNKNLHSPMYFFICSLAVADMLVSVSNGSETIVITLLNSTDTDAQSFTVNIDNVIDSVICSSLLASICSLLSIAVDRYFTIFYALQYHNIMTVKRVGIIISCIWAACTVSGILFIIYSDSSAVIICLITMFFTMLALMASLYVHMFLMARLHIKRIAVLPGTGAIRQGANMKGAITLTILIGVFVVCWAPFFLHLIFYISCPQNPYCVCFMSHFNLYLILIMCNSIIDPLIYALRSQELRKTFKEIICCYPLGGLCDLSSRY
With B1, the “cAMP Assay (EC-50)” value was determined as 34 nM.
As for B2, the “cAMP Assay (EC-50)” value came out at 0.7 nM.
Same read-out and setting: as for B3, the figure is 13.7 nM; as for B4, less than 0.5 nM.
The same measure, in the same setting: as for B5, the figure is 45.1 nM.
Same read-out and setting: the result for B6 reads 56 nM; that for B7, 1 nM; that for B8, 1.34 nM.
Take B9: the “cAMP Assay (EC-50)” value worked out at 24 nM.
As for B10, the “cAMP Assay (EC-50)” value turned out to be 3 nM.
In the case of B11, the “cAMP Assay (EC-50)” value was found to be 1.6 nM.
With B12, the “cAMP Assay (EC-50)” value turned out to be 2.7 nM.
Same read-out and setting: the result for B13 reads 7.5 nM; that for B14, 0.26 nM.

A further assay addresses melanocortin-3 receptor (human, UniProt P41968 1-323). In words: cell-based or functional assay.
For B1, the “Ratios of EC50 values MC 3/4 (MC3R against MC4R)” value (shortened to “Ratios … (MC3R against MC4R)”) is more than 290 ratio and the “cAMP Assay (EC-50)” value is more than 10000 nM.
B2: the “Ratios … (MC3R against MC4R)” value came out at 1.13 ratio and the “cAMP Assay (EC-50)” value was found to be 0.79 nM.
On the same counts, the results for B3 are 17 ratio and 233 nM.
The matching figures for B4: more than 20 ratio and 9.9 nM.
The matching figures for B5: more than 22.2 ratio and more than 1000 nM.
Consider B6, for which the “Ratios … (MC3R against MC4R)” value is more than 200 ratio and the “cAMP Assay (EC-50)” value was more than 10000 nM.
B7: the “Ratios … (MC3R against MC4R)” value was 0.96 ratio and the “cAMP Assay (EC-50)” value was 0.96 nM.
The matching figures for B8: 1.19 ratio and 1.59 nM.
The matching figures for B9: more than 400 ratio and more than 10000 nM.
As for B10, the “Ratios … (MC3R against MC4R)” value is 30 ratio and the “cAMP Assay (EC-50)” value was 81 nM.
As to B11, the “Ratios … (MC3R against MC4R)” value was 5 ratio and the “cAMP Assay (EC-50)” value worked out at 8.6 nM.
On the same counts, the results for B12 are 1.45 ratio and 3.9 nM.
Regarding B13, the “Ratios … (MC3R against MC4R)” value amounted to 420 ratio and the “cAMP Assay (EC-50)” value is 3160 nM.
For the molecule B14, the “Ratios … (MC3R against MC4R)” value turned out to be 3.8 ratio and the “cAMP Assay (EC-50)” value stood at 1 nM.
